Numbering of substitutions follows the chain as printed.
Tests used:
[1] = molecular target: T1, RsAgo K506A (Rhodobacter sphaeroides (ATCC 17025D-5), UniProt A4WYU7 1-777, K506A); assay: fluorescence polarization; 5 mM Mg2+; FP: 20 mM HEPES-KOH pH 7.5, 200 mM NaCl, 5 mM MgCl2, 0.01 mg/ml E. coli total tRNA, 0.01% NP-40, 10 pM probe, 25 C; EMSA: 20 mM HEPES-KOH pH 7.5, 200 mM NaCl, 5
T1 sequence: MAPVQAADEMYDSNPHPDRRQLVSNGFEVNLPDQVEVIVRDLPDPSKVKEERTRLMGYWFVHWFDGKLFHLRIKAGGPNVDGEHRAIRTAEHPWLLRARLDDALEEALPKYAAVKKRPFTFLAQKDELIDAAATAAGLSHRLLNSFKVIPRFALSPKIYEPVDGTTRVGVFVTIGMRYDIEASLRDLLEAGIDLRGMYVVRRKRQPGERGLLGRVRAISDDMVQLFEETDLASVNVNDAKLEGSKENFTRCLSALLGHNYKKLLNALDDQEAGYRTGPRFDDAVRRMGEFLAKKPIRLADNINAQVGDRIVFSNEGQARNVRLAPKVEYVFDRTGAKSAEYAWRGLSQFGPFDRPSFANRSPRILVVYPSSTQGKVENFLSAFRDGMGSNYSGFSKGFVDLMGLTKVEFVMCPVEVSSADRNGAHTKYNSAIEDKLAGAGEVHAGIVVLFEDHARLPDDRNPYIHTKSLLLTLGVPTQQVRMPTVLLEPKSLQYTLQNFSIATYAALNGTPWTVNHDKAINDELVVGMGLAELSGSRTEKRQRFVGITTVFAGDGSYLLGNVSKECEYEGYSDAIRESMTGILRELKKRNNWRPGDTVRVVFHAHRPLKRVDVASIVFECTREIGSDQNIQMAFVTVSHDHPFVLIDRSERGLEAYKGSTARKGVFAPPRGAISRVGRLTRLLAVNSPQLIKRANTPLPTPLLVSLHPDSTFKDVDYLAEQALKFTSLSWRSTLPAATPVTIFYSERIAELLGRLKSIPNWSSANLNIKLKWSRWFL

[2] = molecular target: T2, RsAgo WT (Rhodobacter sphaeroides (ATCC 17025D-5), UniProt A4WYU7 1-777); assay: as above
T2 sequence: T1 sequence with A506K

[3] = molecular target: T3, RsAgo delP45-W63 (Rhodobacter sphaeroides (ATCC 17025D-5), UniProt A4WYU7 1-777, del45-63); assay: fluorescence polarization; 5 mM Mg2+; same binding capacity as WT; FP: 20 mM HEPES-KOH pH 7.5, 200 mM NaCl, 5 mM MgCl2, 0.01 mg/ml E. coli total tRNA, 0.01% NP-40, 10 pM probe, 25 C; EMSA: 20 mM HEPES-KOH pH 7.5, 200 mM NaCl, 5
T3 sequence: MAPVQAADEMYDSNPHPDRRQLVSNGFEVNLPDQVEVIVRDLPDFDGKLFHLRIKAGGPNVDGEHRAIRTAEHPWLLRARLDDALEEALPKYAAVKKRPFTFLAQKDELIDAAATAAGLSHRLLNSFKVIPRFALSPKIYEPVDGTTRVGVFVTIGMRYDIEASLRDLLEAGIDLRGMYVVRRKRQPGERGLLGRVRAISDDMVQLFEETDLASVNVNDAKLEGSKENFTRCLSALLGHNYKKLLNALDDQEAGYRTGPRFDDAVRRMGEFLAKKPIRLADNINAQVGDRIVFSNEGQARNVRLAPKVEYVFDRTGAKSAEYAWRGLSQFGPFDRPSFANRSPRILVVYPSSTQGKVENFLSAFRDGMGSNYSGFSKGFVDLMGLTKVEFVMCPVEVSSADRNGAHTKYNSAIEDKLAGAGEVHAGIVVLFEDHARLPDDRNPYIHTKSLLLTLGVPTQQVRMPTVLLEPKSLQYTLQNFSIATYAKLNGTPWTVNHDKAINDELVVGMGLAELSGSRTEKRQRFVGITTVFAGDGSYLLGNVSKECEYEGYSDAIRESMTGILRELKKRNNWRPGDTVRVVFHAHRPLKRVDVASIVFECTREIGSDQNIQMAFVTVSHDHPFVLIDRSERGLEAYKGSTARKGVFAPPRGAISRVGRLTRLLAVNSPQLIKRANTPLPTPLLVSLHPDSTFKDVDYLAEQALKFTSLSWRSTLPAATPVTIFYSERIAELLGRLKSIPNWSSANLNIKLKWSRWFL

## UUACAACCUACUACCUCG (ssRNA, 5'-phosphate) [5'P-RNA (5'U-RNA), FAM]
[1]
  Kd: 1030 ± 47 nM
[2]
  Kd: 0.91 ± 0.06 nM
[3]
  binding result: binds

Source: paper PMC4919518
